Source: article PMC11415531 (Synthetic and Systems Biotechnology, 2024)

Target: the molecule itself
Experiment: crystal structure

B1: S-adenosyl-L-methionine-dependent methyltransferase RdmB from Streptomyces purpurascens (enzyme)
chain: MSSSSPGEPLEPTDQDLDVLLKNLGNLVTPMALRVAATLRLVDHLLAGADTLAGLADRTDTHPQALSRLVRHLTVVGVLEGGEKQGRPLRPTRLGMLLADGHPAQQRAWLDLNGAVSHADLAFTGLLDVVRTGRPAYAGRYGRPFWEDLSADVALADSFDALMSCDEDLAYEAPADAYDWSAVRHVLDVGGGNGGMLAAIALRAPHLRGTLVELAGPAERARRRFADAGLADRVTVAEGDFFKPLPVTADVVLLSFVLLNWSDEDALTILRGCVRALEPGGRLLVLDRADVEGDGADRFFSTLLDLRMLTFMGGRVRTRDEVVDLAGSAGLALASERTSGSTTLPFDFSILEFTAVSEEAAPAAQASEALPAQE
  binding result: binds
